# Experimental data as given in US20220090012A1.
# Biological target: Transforming Growth Factor Beta Receptor II (TGFBRII) (human) (UniProt P37173)
# Test: cell-based or functional assay
# Sequence of Transforming Growth Factor Beta Receptor II (TGFBRII) (human) (P37173 23-567): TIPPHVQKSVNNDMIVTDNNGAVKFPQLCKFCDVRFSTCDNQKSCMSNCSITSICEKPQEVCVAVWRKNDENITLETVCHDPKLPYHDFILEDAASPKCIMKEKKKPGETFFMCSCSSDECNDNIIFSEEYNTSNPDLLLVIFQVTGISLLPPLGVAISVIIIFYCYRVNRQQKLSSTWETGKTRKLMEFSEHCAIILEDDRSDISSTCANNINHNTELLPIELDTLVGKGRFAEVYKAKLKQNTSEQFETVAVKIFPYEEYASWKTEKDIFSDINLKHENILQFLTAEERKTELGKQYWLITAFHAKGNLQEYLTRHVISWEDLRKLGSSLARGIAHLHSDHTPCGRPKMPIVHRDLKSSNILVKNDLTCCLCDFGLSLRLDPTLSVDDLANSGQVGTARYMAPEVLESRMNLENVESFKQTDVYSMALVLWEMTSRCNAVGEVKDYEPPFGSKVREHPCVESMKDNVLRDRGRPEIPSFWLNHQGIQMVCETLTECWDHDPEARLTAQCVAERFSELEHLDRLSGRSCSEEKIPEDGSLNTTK
substance,measurement,value
recombinant human TGF-β (from UniProt P28072 35-239) (ligand),"CAR T cell expansion (cell number over time) with 10, 20, 50 and 100 ng/ml TGF-β",< 10 ng/mL
